Experimental findings from PMC8511477 (Synthetic Biology, 2021) are described below.

Common to all, as to conditions: 2.5 mM ATP, 0.5 mM CoA, 5 mM MgCl2, pH 7.5, 37 °C
Data set [1] has as its target T1, EcACS (Escherichia coli, UniProt P27550).
T1 construct: gene acs

For data set [2], the system named is T2, ArACS.
T2 construct: gene acs; C-terminal 6xHis (pET29b+), expressed in E. coli BL21*(DE3) delta-patZ, Ni-NTA purified; species only in supplement
As to the kind of experiment: myokinase/pyruvate kinase/lactate dehydrogenase coupled NADH assay, […] nm. The class given is biochemical.

Substrate in data set [3]: CC(=O)O
Nature of the data set: purified protein.

Substrate in data set [4]: O=CO
Nature of the data set: purified protein.

As for `CC(=O)O` [acetate], the km entry in data set [1] is reported as “We assayed these homologs using formate as well as acetate, the likely native substrate”. As a reminder, the Km is the concentration of substrate that gives half-maximal velocity. On to `O=CO` [formate], for which the Km in data set [2] came to 38.5 ± 19.3 mM.

B1: MhACS (Marinithermus hydrothermalis DSM 14884) (protein)
chain: MERIEAVLKENRRFEPPEEFRKRARIQSEAEYEALYRESLEDPEAFWGRVAEELHWFEPWTQVLEWNPPHARWFVNGKTNLSYNALDRHVATWRKNKAAIIWEGEPGEERVLTYHDLWREVQRFANALKQLGVGKGDRVTIYMPMIPETAIAMLACARIGAVHSVVFGGFSANALAERIKDAEAKLLITADGGYRRGRVVPLKAQADEALAETPSVEHVVVVRRTGEAVPMQPGRDHWYHELVESVPDHCPPEVMDAEDPLFILYTSGSTGKPKGVLHTTGGYMVYTYLTTKLVFDLKDEDTYWCTADVGWITGHSYIVYGPLVNGATTLMYEGAPNHPEPDRFWRIVDKYGVTIFYTAPTAIRAFMKWGEAWPRKHRLDSLRLLGTVGEPINPEAWLWYHQVIGQGRCPIVDTWWQTETGGIMITTLPGAHAAKPGFAGKPFFGVAPEIRDAEGNRVETPEEGGYLVLTRPWPSMLRTVWGDPERYRRQYWSQYPDAYFTGDGARRDADGYYLILGRVDDVLNVAGHRLGTMELESALVSHPDVAEAAVVGRPHPEKGEAIVAFVTLKSHARPSEALREALKAHVANTIGPIARPDEIRFAEALPKTRSGKIMRRLLRQIAAGETEIKGDTSTLEDREVVEQLKRGE
The kcat is the number of substrate molecules converted per active site and unit of time at saturation. As to B1, in data set [3], the Km came to 0.089 ± 0.060 mM and the kcat was found to be 15.1 s⁻¹.

B2: EcACS (Escherichia coli K-12) (protein)
chain: MSQIHKHTIPANIADRCLINPQQYEAMYQQSINVPDTFWGEQGKILDWIKPYQKVKNTSFAPGNVSIKWYEDGTLNLAANCLDRHLQENGDRTAIIWEGDDASQSKHISYKELHRDVCRFANTLLELGIKKGDVVAIYMPMVPEAAVAMLACARIGAVHSVIFGGFSPEAVAGRIIDSNSRLVITSDEGVRAGRSIPLKKNVDDALKNPNVTSVEHVVVLKRTGGKIDWQEGRDLWWHDLVEQASDQHQAEEMNAEDPLFILYTSGSTGKPKGVLHTTGGYLVYAALTFKYVFDYHPGDIYWCTADVGWVTGHSYLLYGPLACGATTLMFEGVPNWPTPARMAQVVDKHQVNILYTAPTAIRALMAEGDKAIEGTDRSSLRILGSVGEPINPEAWEWYWKKIGNEKCPVVDTWWQTETGGFMITPLPGATELKAGSATRPFFGVQPALVDNEGNPLEGATEGSLVITDSWPGQARTLFGDHERFEQTYFSTFKNMYFSGDGARRDEDGYYWITGRVDDVLNVSGHRLGTAEIESALVAHPKIAEAAVVGIPHNIKGQAIYAYVTLNHGEEPSPELYAEVRNWVRKEIGPLATPDVLHWTDSLPKTRSGKIMRRILRKIAAGDTSNLGDTSTLADPGVVEKLLEEKQAIAMPS
Take B2: the Km in data set [4] amounted to 54.4 ± 14.9 mM.
